The results in this text go back to the nanobody polyreactivity screen of Harvey et al. (2022).

The nature of this data set: yeast display, Sf9 membrane polyspecificity reagent, FACS + sequencing; frameworks hold sequencing errors. The method, boiled down: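 Nanobodies came from a synthetic yeast display library in Saccharomyces cerevisiae BJ5465, induced with galactose for 36–48 hours and stained for 1 hour at 4 °C with 10% biotinylated, detergent-solubilized Sf9 membrane reagent. Cells were enriched on streptavidin microbeads and then FACS-sorted, with low and high (top ~1%) gates set on anti-HA fluorescence for expression and streptavidin fluorescence for reagent binding. Each polyreactivity label reflects the gate a clone came from. Genes were amplified by colony PCR, sequenced by MiSeq 2 × 250 and filtered by CDR length.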
With “QVQLVESGGGLVQAGGSLRLSCAASGRIFPGYAMGWYRQAPGKERELVAAISGSGVRTYYADSVKGRFTISRDNAKNTVYLQMNSLKPEDTAVYYCAADSKIRTKLDYWGQGTQVTVSS”, the “polyreactivity (PSR sort gate)” value was “low polyreactivity”.

Take “QVQLVESGGGLVQAGGSLRLSCAASGRIFPGYTMGWYRQAPGKEREFVAAISYSGGSTYADSVKGRFTISRDNAKNTVYLQMNSLKPEDTAVNYCAVVLQHWLDMYYWGQGTQVTVSS”: the “polyreactivity (PSR sort gate)” value was “low polyreactivity”.

For “QVQLVESGGGLVQAGGSLRLSCAASGRIFPGYTMGWYRQAPGKERELVAGISRSGGRTYYADSVKGRFTISRDNAKNTVYLQMNSLKPEDTAVYYCAADGYPGRRYTGMDYWGQGTQVTVSS”, the “polyreactivity (PSR sort gate)” value is recorded as “high polyreactivity”.

For “QVQLVESGGGLVQAGGSLRLSCAASGRIFPHNAMGWYRQAPGNERELVAAISSHGGSTYYAVSVKGRFTISRDNAKNTVYLQMNSLKPEDTAVYYCAKYRYFAGDGDYWGQGTQVTVSS”, the “polyreactivity (PSR sort gate)” value is “low polyreactivity”.

Turning to “QVQLVESGGGLVQAGGSLRLSCAASGRIFPHYAIGWYRQAPGKERELVAAISTSGGSTYYADSVKGRFTISRDIAKNTVYLQLNCLKPEDTEVYYCAARGYQYGFYYLVIYDYWGQGTQVTVSS”, the “polyreactivity (PSR sort gate)” value is on record as “low polyreactivity”.

Take “QVQLVESGGGLVQAGGSLRLSCAASGRIFPKNTMGWYRQAPGKERELVAAINWNGGRTYYADSVKGRFTISRDNAKNTVYLQMNSLKPEDTAVYYCAKDGYWDFDYWGQGTQVTVSS”: the “polyreactivity (PSR sort gate)” value is given as “low polyreactivity”.

“QVQLVESGGGLVQAGGSLRLSCAASGRIFPLYAMGWYRQAPGKERELVADISVTGTSTYYADSVKGRFTISRDNAKNTVYLQMNSLKPEDTAVYYCAADLWAYGPLWRWSRADYDYWGQGTQVTVSS”: the “polyreactivity (PSR sort gate)” value is on record as “low polyreactivity”.

In the case of “QVQLVESGGGLVQAGGSLRLSCAASGRIFPNYVMGWYRQAPGKERELVAAISRRGGRTYYADSVKGRFTISRDNAKNTVYLQMNSLKPEDTAVYYCARVPTRAEDVAGWTGMDYWGQGTQVTVSS”, the “polyreactivity (PSR sort gate)” value is “high polyreactivity”.

Consider “QVQLVESGGGLVQAGGSLRLSCAASGRIFPQNAMGWYRQAPGKERELVAVITGNGSTYYADSVKGRFTISRDNAKNTVYLQMNSLKPEDTAVYYCAARVSWPYHRGARDYWGQGTQVTVSS”, for which the “polyreactivity (PSR sort gate)” value was “low polyreactivity”.

Turning to “QVQLVESGGGLVQAGGSLRLSCAASGRIFPRYAMGWYRQAPGKERELVARITRRGGITYYADSVKGRFTISRDNAKNTVYLQMNSLTPEDTAVYYCNVDYYRGGDFSYGYDYWGQGTQVTVSS”, the “polyreactivity (PSR sort gate)” value was “high polyreactivity”.

On to “QVQLVESGGGLVQAGGSLRLSCAASGRIFPSNVMGWYRQAPGKERELVASISARGGSTYYADSVKGRFTISRDNAKNTGYLQMNSLKPEDTAVYYCHKRRSNGYSQHKLDYWGQGTQVTVSS”, for which the “polyreactivity (PSR sort gate)” value was “low polyreactivity”.

Regarding “QVQLVESGGGLVQAGGSLRLSCAASGRIFPSYAMGWYRQAPGKERELVAAISRSGGRTYYADSVKGRFTISRDNAKNTVYLQMNSLKPEDTAVYYCYPYYIASTFDYWGQGTQVTVSS”, the “polyreactivity (PSR sort gate)” value is reported as “high polyreactivity”.

In the case of “QVQLVESGGGLVQAGGSLRLSCAASGRIFPSYAMGWYRQAPGKERELVAAISSSGGRTYYADSVKGRFTISRDNAKNTVYLQKNSLKPEDTAVYYCNARSPAYFYQWLYSFRYDYWGQGTQVTVSS”, the “polyreactivity (PSR sort gate)” value is given as “high polyreactivity”.

Take “QVQLVESGGGLVQAGGSLRLSCAASGRIFPSYMGWYRQAPGKERELVARISNTGSTYYADSVKGRFTISRDNAKNTVYIQMNSLKPEDTAVYYCAAVYIFRVFSHPPYDYWGQGTQVTVSS”: the “polyreactivity (PSR sort gate)” value is on record as “low polyreactivity”.

Consider “QVQLVESGGGLVQAGGSLRLSCAASGRIFPTNAMGWYRQAPGKERELVAGISSSGGSTYYADSVKGRFTISRDNAKNTVYLQMNSLKPEDTAVYYCNAVGYQYLRVYYWGQGTQVTVSS”, for which the “polyreactivity (PSR sort gate)” value is given as “low polyreactivity”.

For “QVQLVESGGGLVQAGGSLRLSCAASGRIFPTNAMGWYRQPPGKEREFVAAITWRGGSTYYADSVKGRFTISRDNAKNTVYLQMNSLKPEDTAVYYCAAELDYFPGYDYWGQGTQVTLSS”, the “polyreactivity (PSR sort gate)” value is on record as “low polyreactivity”.

As to “QVQLVESGGGLVQAGGSLRLSCAASGRIFPTYAMGWYRQAPGKERELVAAITWRGGRTYYADSVKGRFTISRDNAKNTVYLQMNSLKPEDTAVYYCAAGWLTRSYEYDYWGQGTQVTVSS”, the “polyreactivity (PSR sort gate)” value is “high polyreactivity”.

In the case of “QVQLVESGGGLVQAGGSLRLSCAASGRIFPVNALGWYRQAPGKEREFVAAISYSGVSTRYADSVKGRFTISRDKAKNTVYLQMNSLKPEDTAVYYCAARMSVREDYWGQGTQVNVSS”, the “polyreactivity (PSR sort gate)” value was “high polyreactivity”.

For “QVQLVESGGGLVQAGGSLRLSCAASGRIFPVNAMGWYRQAPGKERELVATISRGGNTYYADSVKGRFTISRDNAKNTVYLQMNSLKPEDTAVYYCNVDRGNPVPPSEYWGQGTQVTVSS”, the “polyreactivity (PSR sort gate)” value is “low polyreactivity”.

Take “QVQLVESGGGLVQAGGSLRLSCAASGRIFPVYAMGWYRQAPGKERELVAAISRRGGSTYYADSVKGRFTISRDNAKNTVYLQMNSLKPEDTAVYYCAATAYYYWWWYGGDMDYWGQGTQVTLSS”: the “polyreactivity (PSR sort gate)” value is recorded as “high polyreactivity”.

On to “QVQLVESGGGLVQAGGSLRLSCAASGRIFPWYAMGWYRQAPGKERELVAAISWSGGRTYYADSVKGRFTISRDNAKITVYLQMNSLKPEDTAVYYCNTGTSGRFLSFGNFDYWGQGTQVTVSS”, for which the “polyreactivity (PSR sort gate)” value is “high polyreactivity”.

As to “QVQLVESGGGLVQAGGSLRLSCAASGRIFPYKAMGWYRPAPGKERELVAAITSSGGSTYYADSVKGRFTISRDNAKNTVYLQMNSLKPEDTAVYYCNKDIERYVRIYDSWGQGTQVTVSS”, the “polyreactivity (PSR sort gate)” value was “low polyreactivity”.

Take “QVQLVESGGGLVQAGGSLRLSCAASGRIFPYNAMGWYRQAPGKERELVASITGSGGSTYYADSVKGRFTISRDKAKKTVYLQMNSLKPEDTAVYYCAVQGGYFYTWDGDYWGQGTQVTVSS”: the “polyreactivity (PSR sort gate)” value is on record as “low polyreactivity”.

On to “QVQLVESGGGLVQAGGSLRLSCAASGRIFPYNTMGLYRQAPGKERELVAAISRRGGSTYYADSVKGRFTISRDNAKNTVYLQMNSLKPEDTAVYYCNAVKPRDYGGLAYDYWGQGTQVTVSS”, for which the “polyreactivity (PSR sort gate)” value is “high polyreactivity”.

As to “QVQLVESGGGLVQAGGSLRLSCAASGRIFPYNVMGWYRQAPGKERELVAAISWSGGRTYYADSVKGRFTISRDNAKKTVYLQMNSLKPEDTAVYYCNTRTLVAMGYWGQGTEVTVSS”, the “polyreactivity (PSR sort gate)” value is listed as “high polyreactivity”.

“QVQLVESGGGLVQAGGSLRLSCAASGRIFPYYAMGWYRQAPGKERELVAAINRGGSTNYADSVKGRFTISRDNAKNTVYLQMNSLKPEDTAVYYCAALSRTHGVSYDYWGQGTQVTVSS”: the “polyreactivity (PSR sort gate)” value is given as “high polyreactivity”.

Turning to “QVQLVESGGGLVQAGGSLRLSCAASGRIFPYYAMGWYRQAPGKERELVAAISQSGGSTNYADSVKGRFTISRDNAKNTVYLQLNSLKPEDTAVYYCNVDVSRSWAQPYTYDYWGQGTQVTVSS”, the “polyreactivity (PSR sort gate)” value is recorded as “low polyreactivity”.

As to “QVQLVESGGGLVQAGGSLRLSCAASGRIFPYYAMGWYRQAPGKERELVATITSGGSTYYADSVKGRFTISRDNAKNTVYLQMNSLKPEDTAVYYCAARYPSIYYYRYDYWGQGTQVTVSS”, the “polyreactivity (PSR sort gate)” value was “high polyreactivity”.

In the case of “QVQLVESGGGLVQAGGSLRLSCAASGRIFPYYAMGWYRQAPGKEWELVAAISSSSGSTYYADTVKGRFTISRDNAKNTVYLQMNSLKPEDTAVYYCAARKSWRYNIWSRNAYEDWGQGTQVTVSS”, the “polyreactivity (PSR sort gate)” value is “high polyreactivity”.

As to “QVQLVESGGGLVQAGGSLRLSCAASGRIFPYYTRGWYRQAPGKERELVATITTGGSTNYADSVKGRFTISRDNAENTVYLQMNSLKPEDTAVYYCAKREASSRWPYDYWGQGTQVTVSS”, the “polyreactivity (PSR sort gate)” value is given as “low polyreactivity”.

For “QVQLVESGGGLVQAGGSLRLSCAASGRIFQAYAMGWYRQAPGKERELVASISYRGGITYYADSVKGRFTISRDNAKNTVYLQMNSLKPEDTEVYYCAAGRKGSMYYWGQGTQVTVSW”, the “polyreactivity (PSR sort gate)” value is given as “high polyreactivity”.

As to “QVQLVESGGGLVQAGGSLRLSCAASGRIFQGNAMGWYRQAPGKERELVAAIDWSGGGSTYADSVKGRFTISRDNAKNTVYLQMNSLKPEDTAVYYCARDVVWGEDYWGQGTQVTVSS”, the “polyreactivity (PSR sort gate)” value is on record as “low polyreactivity”.

As to “QVQLVESGGGLVQAGGSLRLSCAASGRIFQGYAMGWYRQAPGKERELVAAISVRGGSTFYADSVKGRFTISRDNAKNTVYLQMNSLKPEDTAVYYCATRTRYRGGYWGQGTQVTVSS”, the “polyreactivity (PSR sort gate)” value is given as “high polyreactivity”.

For the sequence “QVQLVESGGGLVQAGGSLRLSCAASGRIFQGYAMGWYRQAPGKERELVAAITLSGGSTYYADSVKGRFTISRDHAKNTVYLQMNSLKPEDTAVYYCNAYYPDEPSLYDYWGQVTQVTVSS”, the “polyreactivity (PSR sort gate)” value is listed as “low polyreactivity”.

As to “QVQLVESGGGLVQAGGSLRLSCAASGRIFQKNTMGWYRQAPGKERELVAAINWNGGRTYYADSVKGRFTISRDNAKNTVYLQMNSLKPEDTAVYYCAKDGYWDFDYWGQGTQVTVSS”, the “polyreactivity (PSR sort gate)” value is listed as “low polyreactivity”.

For the sequence “QVQLVESGGGLVQAGGSLRLSCAASGRIFQKYAMVWYRQAPGKERELVAAISSGDSTYADSVKGRFSISRDNAKNTVYLQMNSLKPEDTAVYYCAGDLYDPWWYSYMGEYEYWGQGTQVTVSS”, the “polyreactivity (PSR sort gate)” value is recorded as “low polyreactivity”.

On to “QVQLVESGGGLVQAGGSLRLSCAASGRIFQPNVMGWYRQAPGIERELVAAIRSGSSTYYADSVKGRFTISRDNAKNTVYLQMNSLKPEDTAVDYCATRYRKQYKPYEYWGQGTQVTVSA”, for which the “polyreactivity (PSR sort gate)” value is “high polyreactivity”.

Take “QVQLVESGGGLVQAGGSLRLSCAASGRIFQSNAMGWNIQAPGKERELVAASNSGDSTYYADSVKGRFTISRDNAINTVYLQMNSLQPEDTAVYYSAADAVYQYYSYYYWGQGTQVTVSS”: the “polyreactivity (PSR sort gate)” value is “low polyreactivity”.

Consider “QVQLVESGGGLVQAGGSLRLSCAASGRIFQTYAMGWYRQAPGKERELVASISWSGGSTYYADSVKGRFTILRDNAKNTVYLQMNSLKPEDTAVYYCAAVYYSTDYYFWYDYWGQGTQVTVSS”, for which the “polyreactivity (PSR sort gate)” value is on record as “low polyreactivity”.

As for “QVQLVESGGGLVQAGGSLRLSCAASGRIFQTYDMGWYRQAPGKERELVARIRLSGGSTYYADSVKGRFTISRDNAKNTVYLQMNSLKPEETAVYYCAARYSRALFTDPYYYWGQGTQVTVSS”, the “polyreactivity (PSR sort gate)” value is “high polyreactivity”.

Take “QVQLVESGGGLVQAGGSLRLSCAASGRIFQWYAMGWYRQAPGKERELVAAISWRDGRTYYADSVKGRFTISRDNAKNNVYLQMNSLKPEDTAVYYCAVRTFGRYGYWGQGTQVTVSS”: the “polyreactivity (PSR sort gate)” value is “high polyreactivity”.
